From paper PMC5456053 come the findings set out here.

In assay [1] the target is SecYEG-SecDF•YajC (E. coli) (UniProt P0AGA2).
The target in assay [2] is SecA C34 (C-terminal 34 kD protein; SecA 610-901) (E. coli) (UniProt P10408).

B1: SecA N632 (SecA 1-632) (domain or fragment)
chain: MLIKLLTKVFGSRNDRTLRRMRKVVNIINAMEPEMEKLSDEELKGKTAEFRARLEKGEVLENLIPEAFAVVREASKRVFGMRHFDVQLLGGMVLNERCIAEMRTGEGKTLTATLPAYLNALTGKGVHVVTVNDYLAQRDAENNRPLFEFLGLTVGINLPGMPAPAKREAYAADITYGTNNEYGFDYLRDNMAFSPEERVQRKLHYALVDEVDSILIDEARTPLIISGPAEDSSEMYKRVNKIIPHLIRQEKEDSETFQGEGHFSVDEKSRQVNLTERGLVLIEELLVKEGIMDEGESLYSPANIMLMHHVTAALRAHALFTRDVDYIVKDGEVIIVDEHTGRTMQGRRWSDGLHQAVEAKEGVQIQNENQTLASITFQNYFRLYEKLAGMTGTADTEAFEFSSIYKLDTVVVPTNRPMIRKDLPDLVYMTEAEKIQAIIEDIKERTAKGQPVLVGTISIEKSELVSNELTKAGIKHNVLNAKFHANEAAIVAQAGYPAAVTIATNMAGRGTDIVLGGSWQAEVAALENPTAEQIEKIKADWQVRHDAVLEAGGLHIIGTERHESRRIDNQLRGRSGRQGDAGSSRFYLSMEDALMRIFASDRVSGMMRKLGMKPGEAIEHPWVTKAIANAQR
Take B1: the Channel Activity, μA, +YEG: ion current in Xenopus oocytes injected with the fragment, liposomes, SecYEG-SecDF•YajC, pOmpA, ATP-Mg in assay [1] is 0.4 μA.

B2: SecA N668 (SecA 1-668) (domain or fragment)
chain: MLIKLLTKVFGSRNDRTLRRMRKVVNIINAMEPEMEKLSDEELKGKTAEFRARLEKGEVLENLIPEAFAVVREASKRVFGMRHFDVQLLGGMVLNERCIAEMRTGEGKTLTATLPAYLNALTGKGVHVVTVNDYLAQRDAENNRPLFEFLGLTVGINLPGMPAPAKREAYAADITYGTNNEYGFDYLRDNMAFSPEERVQRKLHYALVDEVDSILIDEARTPLIISGPAEDSSEMYKRVNKIIPHLIRQEKEDSETFQGEGHFSVDEKSRQVNLTERGLVLIEELLVKEGIMDEGESLYSPANIMLMHHVTAALRAHALFTRDVDYIVKDGEVIIVDEHTGRTMQGRRWSDGLHQAVEAKEGVQIQNENQTLASITFQNYFRLYEKLAGMTGTADTEAFEFSSIYKLDTVVVPTNRPMIRKDLPDLVYMTEAEKIQAIIEDIKERTAKGQPVLVGTISIEKSELVSNELTKAGIKHNVLNAKFHANEAAIVAQAGYPAAVTIATNMAGRGTDIVLGGSWQAEVAALENPTAEQIEKIKADWQVRHDAVLEAGGLHIIGTERHESRRIDNQLRGRSGRQGDAGSSRFYLSMEDALMRIFASDRVSGMMRKLGMKPGEAIEHPWVTKAIANAQRKVESRNFDIRKQLLEYDDVANDQRRAIYSQRNELLD
For the molecule B2, in assay [1], the % pOmpA Translocation, +YEG: in vitro translocation of pOmpA into liposomes with SecYEG-SecDF•YajC (% pOmpA Translocation) was determined as 0 and the Channel Activity, μA, +YEG: ion current in Xenopus oocytes injected with the fragment, liposomes, SecYEG-SecDF•YajC, pOmpA, ATP-Mg turned out to be 5.8 μA. For the same molecule, the translocation of pOmpA, liposomes with SecYEG-SecDF•YajC, N-fragment reconstituted with C34 (Fig 6B) (% of the activity of intact SecA) in assay [2] was determined as 50.

B3: SecA N643 (SecA 1-643) (domain or fragment)
chain: MLIKLLTKVFGSRNDRTLRRMRKVVNIINAMEPEMEKLSDEELKGKTAEFRARLEKGEVLENLIPEAFAVVREASKRVFGMRHFDVQLLGGMVLNERCIAEMRTGEGKTLTATLPAYLNALTGKGVHVVTVNDYLAQRDAENNRPLFEFLGLTVGINLPGMPAPAKREAYAADITYGTNNEYGFDYLRDNMAFSPEERVQRKLHYALVDEVDSILIDEARTPLIISGPAEDSSEMYKRVNKIIPHLIRQEKEDSETFQGEGHFSVDEKSRQVNLTERGLVLIEELLVKEGIMDEGESLYSPANIMLMHHVTAALRAHALFTRDVDYIVKDGEVIIVDEHTGRTMQGRRWSDGLHQAVEAKEGVQIQNENQTLASITFQNYFRLYEKLAGMTGTADTEAFEFSSIYKLDTVVVPTNRPMIRKDLPDLVYMTEAEKIQAIIEDIKERTAKGQPVLVGTISIEKSELVSNELTKAGIKHNVLNAKFHANEAAIVAQAGYPAAVTIATNMAGRGTDIVLGGSWQAEVAALENPTAEQIEKIKADWQVRHDAVLEAGGLHIIGTERHESRRIDNQLRGRSGRQGDAGSSRFYLSMEDALMRIFASDRVSGMMRKLGMKPGEAIEHPWVTKAIANAQRKVESRNFDIRK
As for B3, the Channel Activity, μA, +YEG: ion current in Xenopus oocytes injected with the fragment, liposomes, SecYEG-SecDF•YajC, pOmpA, ATP-Mg in assay [1] is 3.2 μA.

B4: SecA N639* (SecA 1-639, F639D) (domain or fragment)
chain: MLIKLLTKVFGSRNDRTLRRMRKVVNIINAMEPEMEKLSDEELKGKTAEFRARLEKGEVLENLIPEAFAVVREASKRVFGMRHFDVQLLGGMVLNERCIAEMRTGEGKTLTATLPAYLNALTGKGVHVVTVNDYLAQRDAENNRPLFEFLGLTVGINLPGMPAPAKREAYAADITYGTNNEYGFDYLRDNMAFSPEERVQRKLHYALVDEVDSILIDEARTPLIISGPAEDSSEMYKRVNKIIPHLIRQEKEDSETFQGEGHFSVDEKSRQVNLTERGLVLIEELLVKEGIMDEGESLYSPANIMLMHHVTAALRAHALFTRDVDYIVKDGEVIIVDEHTGRTMQGRRWSDGLHQAVEAKEGVQIQNENQTLASITFQNYFRLYEKLAGMTGTADTEAFEFSSIYKLDTVVVPTNRPMIRKDLPDLVYMTEAEKIQAIIEDIKERTAKGQPVLVGTISIEKSELVSNELTKAGIKHNVLNAKFHANEAAIVAQAGYPAAVTIATNMAGRGTDIVLGGSWQAEVAALENPTAEQIEKIKADWQVRHDAVLEAGGLHIIGTERHESRRIDNQLRGRSGRQGDAGSSRFYLSMEDALMRIFASDRVSGMMRKLGMKPGEAIEHPWVTKAIANAQRKVESRND
Regarding B4, in assay [1], the Channel Activity, μA, +YEG: ion current in Xenopus oocytes injected with the fragment, liposomes, SecYEG-SecDF•YajC, pOmpA, ATP-Mg turned out to be 1.1 μA.

B5: SecA N640 (SecA 1-640) (domain or fragment)
chain: MLIKLLTKVFGSRNDRTLRRMRKVVNIINAMEPEMEKLSDEELKGKTAEFRARLEKGEVLENLIPEAFAVVREASKRVFGMRHFDVQLLGGMVLNERCIAEMRTGEGKTLTATLPAYLNALTGKGVHVVTVNDYLAQRDAENNRPLFEFLGLTVGINLPGMPAPAKREAYAADITYGTNNEYGFDYLRDNMAFSPEERVQRKLHYALVDEVDSILIDEARTPLIISGPAEDSSEMYKRVNKIIPHLIRQEKEDSETFQGEGHFSVDEKSRQVNLTERGLVLIEELLVKEGIMDEGESLYSPANIMLMHHVTAALRAHALFTRDVDYIVKDGEVIIVDEHTGRTMQGRRWSDGLHQAVEAKEGVQIQNENQTLASITFQNYFRLYEKLAGMTGTADTEAFEFSSIYKLDTVVVPTNRPMIRKDLPDLVYMTEAEKIQAIIEDIKERTAKGQPVLVGTISIEKSELVSNELTKAGIKHNVLNAKFHANEAAIVAQAGYPAAVTIATNMAGRGTDIVLGGSWQAEVAALENPTAEQIEKIKADWQVRHDAVLEAGGLHIIGTERHESRRIDNQLRGRSGRQGDAGSSRFYLSMEDALMRIFASDRVSGMMRKLGMKPGEAIEHPWVTKAIANAQRKVESRNFD
In the case of B5, in assay [1], the Channel Activity, μA, +YEG: ion current in Xenopus oocytes injected with the fragment, liposomes, SecYEG-SecDF•YajC, pOmpA, ATP-Mg is 2.2 μA. The same molecule returned a translocation of pOmpA, liposomes with SecYEG-SecDF•YajC, N-fragment reconstituted with C34 (Fig 6B) (% of the activity of intact SecA) in assay [2] of 50.
